Test results reported in patent US20030208060A1.
Each block holds one substance with its values, some of them ahead of it.

What was measured:
[1] = biological target: T1, apoE- and lipoprotein lipase-independent TGRLP receptor (apoB48R) on the surface of THP-1 monocyte-macrophages (human) (UniProt Q0VD83); experiment: binding of 125I-HTG-VLDL at 5 µg/ml to THP-1 macrophages, 4 °C
T1 sequence: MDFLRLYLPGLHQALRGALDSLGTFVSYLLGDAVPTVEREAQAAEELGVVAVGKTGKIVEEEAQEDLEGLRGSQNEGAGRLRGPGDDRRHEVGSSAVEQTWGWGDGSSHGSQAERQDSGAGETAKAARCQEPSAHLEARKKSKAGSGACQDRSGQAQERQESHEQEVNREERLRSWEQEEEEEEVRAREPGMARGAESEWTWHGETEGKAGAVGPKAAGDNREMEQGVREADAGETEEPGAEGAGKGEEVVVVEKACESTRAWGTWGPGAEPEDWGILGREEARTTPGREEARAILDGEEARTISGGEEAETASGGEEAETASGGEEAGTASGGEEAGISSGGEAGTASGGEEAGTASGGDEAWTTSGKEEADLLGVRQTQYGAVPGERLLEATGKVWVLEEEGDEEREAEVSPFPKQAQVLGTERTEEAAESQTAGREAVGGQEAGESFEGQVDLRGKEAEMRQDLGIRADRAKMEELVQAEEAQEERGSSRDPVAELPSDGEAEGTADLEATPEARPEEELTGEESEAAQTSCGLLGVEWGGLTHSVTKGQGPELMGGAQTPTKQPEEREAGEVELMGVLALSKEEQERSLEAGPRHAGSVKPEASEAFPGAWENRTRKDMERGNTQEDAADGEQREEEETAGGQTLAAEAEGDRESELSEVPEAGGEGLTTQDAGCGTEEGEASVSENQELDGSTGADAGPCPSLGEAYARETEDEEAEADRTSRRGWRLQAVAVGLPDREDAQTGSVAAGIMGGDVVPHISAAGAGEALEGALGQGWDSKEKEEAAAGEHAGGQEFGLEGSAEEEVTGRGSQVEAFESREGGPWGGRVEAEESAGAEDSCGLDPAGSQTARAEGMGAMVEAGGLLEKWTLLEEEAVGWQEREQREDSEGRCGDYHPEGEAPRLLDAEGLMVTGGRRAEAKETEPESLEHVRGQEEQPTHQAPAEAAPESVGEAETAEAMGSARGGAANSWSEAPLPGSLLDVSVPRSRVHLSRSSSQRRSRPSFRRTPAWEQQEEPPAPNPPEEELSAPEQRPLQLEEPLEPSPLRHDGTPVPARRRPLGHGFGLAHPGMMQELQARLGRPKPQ

[2] = biological target: LDL receptor of cultured human skin fibroblasts (upregulated) (human) (UniProt P01130); experiment: binding of 125I-HTG-VLDL at 5 µg/ml to fibroblasts with induced LDL receptor, 4 °C
[3] = biological target: MBP235 (membrane binding protein of ~235 kDa: MBP200 plus noncovalently bound subunit(s) of ~35 kDa) (human); experiment: quantitative ligand blot, Scatchard; settings: scale: ng apo very low density lipoprotein/mg cell protein
[4] = biological target: MBP200 (membrane binding protein of ~200 kDa; human monocyte-macrophage apoB48 receptor, apoB48R) (human) (UniProt Q0VD83); experiment: quantitative ligand blot, Scatchard; settings: scale: ng apo very low density lipoprotein/mg cell protein
[5] = biological target: MBP200R (reduced, ligand-binding form generated from MBP200 and MBP235 by 2-mercaptoethanol) (human) (UniProt Q0VD83); experiment: quantitative ligand blot after reduction, Scatchard; parameters: Bmax: unit not given here
[6] = biological target: T1, apoE- and lipoprotein lipase-independent TGRLP receptor (apoB48R) on the surface of THP-1 monocyte-macrophages (human); experiment: competition with 125I-HTG-VLDL1 for THP-1 macrophages; set as 100% by definition
[7] = biological target: T1, apoE- and lipoprotein lipase-independent TGRLP receptor (apoB48R) on the surface of THP-1 monocyte-macrophages (human); experiment: competition with 125I-tryp-VLDL1 for THP-1 macrophages; set as 100% by definition
[8] = biological target: T1, apoE- and lipoprotein lipase-independent TGRLP receptor (apoB48R) on the surface of THP-1 monocyte-macrophages (human); experiment: competition with 125I-tryp-VLDL2 for THP-1 macrophages; set as 100% by definition
[9] = biological target: hypertriglyceridemic very low density lipoprotein Sf100-400 (HTG-VLDL) (human) (UniProt P04114); experiment: competitive ligand blot: binding of biotinylated HTG-VLDL to MBP200 and MBP235, control IgG 400 µg/ml
[10] = biological target: T1, apoE- and lipoprotein lipase-independent TGRLP receptor (apoB48R) on the surface of THP-1 monocyte-macrophages (human); experiment: specific binding of the 125I-lipoprotein to THP-1 macrophages, 4 °C
[11] = biological target: T1, apoE- and lipoprotein lipase-independent TGRLP receptor (apoB48R) on the surface of THP-1 monocyte-macrophages (human); experiment: competition with 125I-tryp-VLDL1 for THP-1 macrophages, 4 °C, lactoferrin 100 µg/ml
[12] = biological target: T1, apoE- and lipoprotein lipase-independent TGRLP receptor (apoB48R) on the surface of THP-1 monocyte-macrophages (human); experiment: competition with 125I-HTG-VLDL1 for THP-1 macrophages, 4 °C, lactoferrin 500 µg/ml

Chain of lactoferrin (P02788 20-710): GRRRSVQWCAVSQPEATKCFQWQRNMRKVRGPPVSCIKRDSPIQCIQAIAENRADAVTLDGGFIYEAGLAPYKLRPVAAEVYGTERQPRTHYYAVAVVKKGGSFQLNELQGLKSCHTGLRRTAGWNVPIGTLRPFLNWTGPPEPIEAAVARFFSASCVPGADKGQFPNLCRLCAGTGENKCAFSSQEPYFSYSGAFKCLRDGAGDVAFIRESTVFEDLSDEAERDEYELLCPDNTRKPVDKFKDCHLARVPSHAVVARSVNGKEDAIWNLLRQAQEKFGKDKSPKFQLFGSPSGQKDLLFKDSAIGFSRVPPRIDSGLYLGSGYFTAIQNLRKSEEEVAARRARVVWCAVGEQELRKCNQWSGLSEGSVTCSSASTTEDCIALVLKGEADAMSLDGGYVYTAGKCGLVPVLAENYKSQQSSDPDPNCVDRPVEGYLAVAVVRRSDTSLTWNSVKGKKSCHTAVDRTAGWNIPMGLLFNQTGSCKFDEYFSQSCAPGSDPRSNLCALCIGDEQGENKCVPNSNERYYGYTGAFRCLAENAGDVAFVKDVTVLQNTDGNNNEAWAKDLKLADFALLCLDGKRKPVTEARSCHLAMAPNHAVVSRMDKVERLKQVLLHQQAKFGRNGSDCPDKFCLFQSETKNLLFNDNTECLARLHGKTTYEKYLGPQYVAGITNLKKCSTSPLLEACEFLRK
Chain of LDL receptor of cultured human skin fibroblasts (upregulated) (human) (P01130 22-860): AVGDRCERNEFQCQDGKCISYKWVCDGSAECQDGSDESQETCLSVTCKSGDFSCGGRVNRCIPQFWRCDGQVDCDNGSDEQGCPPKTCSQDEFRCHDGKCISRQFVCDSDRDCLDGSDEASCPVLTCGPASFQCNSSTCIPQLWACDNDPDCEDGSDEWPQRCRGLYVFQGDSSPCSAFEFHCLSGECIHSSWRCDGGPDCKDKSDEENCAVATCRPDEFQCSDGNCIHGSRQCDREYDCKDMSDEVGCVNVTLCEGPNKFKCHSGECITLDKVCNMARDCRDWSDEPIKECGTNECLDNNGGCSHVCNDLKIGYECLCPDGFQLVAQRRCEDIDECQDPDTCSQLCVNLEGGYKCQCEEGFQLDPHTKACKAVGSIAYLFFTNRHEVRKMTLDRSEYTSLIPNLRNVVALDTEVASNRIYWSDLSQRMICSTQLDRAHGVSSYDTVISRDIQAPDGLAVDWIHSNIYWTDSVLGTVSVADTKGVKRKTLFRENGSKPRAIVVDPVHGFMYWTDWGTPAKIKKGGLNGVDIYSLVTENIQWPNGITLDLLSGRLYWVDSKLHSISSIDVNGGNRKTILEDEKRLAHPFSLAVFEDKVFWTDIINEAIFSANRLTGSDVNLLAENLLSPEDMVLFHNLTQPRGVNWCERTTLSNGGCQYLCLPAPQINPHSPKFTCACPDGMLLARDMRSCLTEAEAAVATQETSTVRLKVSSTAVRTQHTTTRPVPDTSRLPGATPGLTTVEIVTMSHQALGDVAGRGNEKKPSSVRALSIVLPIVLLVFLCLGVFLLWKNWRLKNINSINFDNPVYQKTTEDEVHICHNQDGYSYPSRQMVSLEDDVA

specific binding activity (ng/mg THP-1 cell protein) [1]: 24
specific binding activity (ng/mg fibroblast cell protein) [2]: 237
Bmax [3]: 66
Bmax [4]: 96
Bmax [5]: 160
Kd [5]: 1.4 µg/mL
Substance: hypertriglyceridemic very low density lipoprotein Sf100-400 (HTG-VLDL) (from UniProt P04114 28-4563; P04114 28-2179; P02649 19-317; P02656 21-99)

Percent Inhibition [6]: 100%
Percent Inhibition [7]: 100%
Percent Inhibition [8]: 100%
Substance: Unlabeled VLDL (20x), P04114 28-4563

percent of binding blocked [9]: 25%
Substance: preimmune IgG (rabbit 1325) (antibody)

specific binding (0% inhibition) (fmol/mg cell protein) [10]: 20
Substance: trypsinized VLDL2 (tryp-VLDL2) (from UniProt P04114 28-4563)

Percent Inhibition [11]: 4%
Percent Inhibition [12]: 5%
Substance: lactoferrin

specific binding (0% inhibition) (fmol/mg cell protein) [10]: 140
Substance: trypsinized VLDL Sf100-400, devoid of apoE (tryp-VLDL) (from UniProt P04114 28-4563)
